Assay results reported in patent US20150246947A1 (BAXALTA, published 2015).
Non-standard residues stand in square brackets, D forms with d. Tle = CC(C)(C)[C@H](N)C(=O)O

T1: human Protein S (human, UniProt P07225 42-676)
T1 construct: Called 'full length Protein S' / 'human full-length Protein S'; It was coated on plates (ELISA), Eu-labeled (LANCE) or immobilized on a chip (Biacore); also called PS; full length Protein S
T1 sequence: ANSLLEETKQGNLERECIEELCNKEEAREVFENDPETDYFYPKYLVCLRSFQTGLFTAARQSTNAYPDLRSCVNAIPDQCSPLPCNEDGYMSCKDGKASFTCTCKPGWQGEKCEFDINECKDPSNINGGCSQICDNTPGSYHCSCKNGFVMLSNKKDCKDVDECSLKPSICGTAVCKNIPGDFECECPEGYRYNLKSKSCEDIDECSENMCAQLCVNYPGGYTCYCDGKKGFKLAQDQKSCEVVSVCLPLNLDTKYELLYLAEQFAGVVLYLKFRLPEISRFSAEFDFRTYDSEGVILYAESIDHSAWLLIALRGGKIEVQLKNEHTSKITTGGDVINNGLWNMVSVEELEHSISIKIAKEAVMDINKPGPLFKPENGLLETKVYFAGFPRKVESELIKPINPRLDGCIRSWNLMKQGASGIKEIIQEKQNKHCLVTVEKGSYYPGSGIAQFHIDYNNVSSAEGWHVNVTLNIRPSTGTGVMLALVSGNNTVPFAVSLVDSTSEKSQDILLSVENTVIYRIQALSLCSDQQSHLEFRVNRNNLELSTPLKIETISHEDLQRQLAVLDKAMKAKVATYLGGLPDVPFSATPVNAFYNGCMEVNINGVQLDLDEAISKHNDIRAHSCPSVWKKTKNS

T2: human Protein S (UniProt P07225 42-676)
T2 chain: T1 sequence

B1: JBS3194 (peptide)
peptide: Ac-TGLVSAGWYDYNNDTYREFT-NH2
B2: JBS3196 (peptide)
peptide: Ac-YGLVSAGWYDYNFDHYMEFT-NH2
B3: JBS3198 (peptide)
peptide: Ac-TGLVSAGWYDYNNDHYMEFT-NH2
B4: JBS3190 (peptide)
peptide: Ac-YGLVSAGWYDYNFDTYREFT-NH2
B5: JBS3191 (peptide)
peptide: Ac-YGLVSAGWYDYNFDVYREFT-NH2
B6: JBS3192 (peptide)
peptide: Ac-TGLVEAGWYDYNFDTYREFT-NH2
B7: JBS3189 (peptide)
peptide: Ac-TGLVSAGWYDYNFDVYTEFT-NH2
B8: JBS3197 (peptide)
peptide: Ac-TGLVEAGWYDYNFDHYMEFT-NH2
B9: JBS3188 (peptide)
peptide: Ac-TGLVSAGWYDYNFDTYTEFT-NH2
B10: JBS3186 (peptide)
peptide: Ac-TGLVSAGWYDYNFDTYMEFT-NH2
B11: JBS3202 (peptide)
peptide: Ac-TGL[Tle]SAGWYDYNFDTYREFT-NH2
SMILES: CC(=O)N[C@H](C(=O)NCC(=O)N[C@@H](CC(C)C)C(=O)N[C@H](C(=O)N[C@@H](CO)C(=O)N[C@@H](C)C(=O)NCC(=O)N[C@@H](Cc1c[nH]c2ccccc12)C(=O)N[C@@H](Cc1ccc(O)cc1)C(=O)N[C@@H](CC(=O)O)C(=O)N[C@@H](Cc1ccc(O)cc1)C(=O)N[C@@H](CC(N)=O)C(=O)N[C@@H](Cc1ccccc1)C(=O)N[C@@H](CC(=O)O)C(=O)N[C@H](C(=O)N[C@@H](Cc1ccc(O)cc1)C(=O)N[C@@H](CCCNC(=N)N)C(=O)N[C@@H](CCC(=O)O)C(=O)N[C@@H](Cc1ccccc1)C(=O)N[C@H](C(N)=O)[C@@H](C)O)[C@@H](C)O)C(C)(C)C)[C@@H](C)O
B12: JBS3203 (peptide)
peptide: Ac-TGL[Tle]SAGWYDYNFDHYMEFT-NH2
B13: JBS3193 (peptide)
peptide: Ac-TGLVEAGWYDYNFDVYREFT-NH2
B14: JBS2661 (peptide)
peptide: Ac-TGHVSAGWYDYNFDSYREFT-NH2
B15: JBS2516 (peptide)
peptide: Ac-TAHVSAGWYDYNFDHYREFT-NH2
B16: JBS2625 (peptide)
peptide: Ac-TGHVSAGWYDYNFDHYFEFT-NH2
B17: JBS2586 (peptide)
peptide: Ac-TGHVSAGWYDYNFDHYLEFT-NH2
B18: JBS2602 (peptide)
peptide: Ac-TGHVSAGWYDYNKDHYREFT-NH2
B19: JBS2592 (peptide)
peptide: Ac-TGKVSAGWYDYNFDHYREFT-NH2
B20: JBS2512 (peptide)
peptide: Ac-TGHVSAGWYDYNFDHYREFT-NH2
B21: JBS2526 (peptide)
peptide: Ac-TGHVSAGWYDYNADHYREFT-NH2
B22: JBS2629 (peptide)
peptide: Ac-TPHVSAGWYDYNFDHYREFT-NH2
B23: JBS2604 (peptide)
peptide: Ac-TGHVSAGWYDYNFDKYREFT-NH2
B24: JBS2584 (peptide)
peptide: Ac-TGHVSAGWYDYNFDLYREFT-NH2
B25: JBS2546 (peptide)
peptide: Ac-TGHVSAGWYDYNFDDYREFT-NH2
B26: JBS2552 (peptide)
peptide: Ac-GGHVSAGWYDYNFDHYREFT-NH2
B27: JBS2528 (peptide)
peptide: Ac-TGHVSAGWYDYNFDAYREFT-NH2
B28: JBS2582 (peptide)
peptide: Ac-TGHVSAGWYDYNLDHYREFT-NH2
B29: JBS2591 (peptide)
peptide: Ac-TKHVSAGWYDYNFDHYREFT-NH2

Each binder was assayed against T1, human Protein S (assay: LANCE TR-FRET competition; Eu-labeled Protein S; competitor tracer JBS0684).
Method: Peptides also were characterized in a competition, homogenous europium-based TR-FRET assay (LANCE IC50 assay) using JBS0684 as a tracer (i.e., competitor for Protein S binding). The following reagents were mixed together in a Perkin-Elmer ProxiPlate MTP well (indicated concentration is the final concentration): Eu-labeled Protein S (10 nM), Ulight™-labeled Streptavidin (100 nM), tracer (JBS0684 (300 nM)), and peptide (titrated in three-fold dilution steps). The final volume was 50 μl/well. The reaction mix was incubated for 1 hour at room temperature, then the fluorescence emission at 665 nm was recorded on a multi-mode reader (SpectraMax® M5, Molecular Devices) using the following instrument settings: Ex 340 nm, Em 665 nm, delay 50 μsec, integration 100 μsec, reads 100. Binding of tracer peptides to soluble europium-labeled Protein S was detected by Streptavidin labeled with an acceptor fluorophor (ULight™). Inhibition of tracer-binding to Protein S by a non-biotinylated peptide results in a decrease of TR-FRET between the Eu-labeled Protein S and ULight™-labeled Streptavidin. IC50 values were obtained from peptide titration curves at constant tracer concentration using non-linear regression of the fluorescence emission signals at 665 nm.
Several peptides having multiple substitutions in the JBS2572 amino acid sequence were synthesized and evaluated using LANCE IC50 and CAT assays described above. For the assays, pooled normal plasma was supplemented with 3 nM APC and triggered with 6 pM TF, and 15 μM phospholipids (DOPC/POPS 80/20). Stock APC was diluted with TF-PL-MIX to 24 nM (plasma concentration: 3 nM).
With B1 the IC50 was 1.8 nM. B2 was tested, and the IC50 was 2.2 nM. In the case of B3, the IC50 is reported as 2.5 nM. In the case of B4, the IC50 is reported as 1.6 nM. B5 showed an IC50 of 1.6 nM. For B6, the IC50 was 2.8 nM. B7 showed an IC50 of 5 nM. With B8 the IC50 was 6.1 nM. B9 gave an IC50 of 2.9 nM. B10 was tested, and the IC50 was 2.6 nM. B11 gave an IC50 of 1.6 nM. B12 showed an IC50 of 1.8 nM. Work on B13 yielded an IC50 of 2.5 nM.

Target: T2, human Protein S
Assay: LANCE competition
Outline: (§1)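 IC50 was derived by non-linear regression of the acceptor emission in a LANCE time-resolved FRET competition assay using europium-labelled Protein S, ULight-labelled streptavidin, a biotinylated tracer peptide and three-fold titrations of unlabelled test peptide. Reactions of 50 µl contained 10 nM Protein S, 100 nM streptavidin and 300 nM tracer at final concentration (2 nM Protein S and 60 nM tracer on a Tecan F500), were kept 1 hour at room temperature, and were read at Ex 340 nm, Em 665 nm.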
In the case of B1, the IC50 is reported as 2 nM. B2 gave an IC50 of 2.5 nM. B13 was tested, and the IC50 was 2.7 nM.

The binders below were run against T1, human Protein S (assay: cell-based or functional assay).
In the case of B14, the “CAT EC50” value is reported as 16 nM. With B15 the “CAT EC50” value was 21 nM. With B16 the “CAT EC50” value was 29 nM. With B17 the “CAT EC50” value was 19 nM. In the case of B18, the “CAT EC50” value is reported as 30 nM. With B19 the “CAT EC50” value was 68 nM. In the case of B20, the “CAT EC50” value is reported as 24 nM. In the case of B21, the “CAT EC50” value is reported as 19 nM. For B22, the “CAT EC50” value was 25 nM. With B23 the “CAT EC50” value was 19 nM. With B24 the “CAT EC50” value was 9 nM. In the case of B25, the “CAT EC50” value is reported as 30 nM. For B26, the “CAT EC50” value was 24 nM. B27 was tested, and the “CAT EC50” value was 23 nM. For B28, the “CAT EC50” value was 15 nM.

Target: T1, human Protein S
Assay: cell-based or functional assay
Remark: another data set of the same source
With B1 the “CAT EC50” value was 122 nM. With B2 the “CAT EC50” value was 155 nM. In the case of B3, the “CAT EC50” value is reported as 149 nM. B4 was tested, and the “CAT EC50” value was 130 nM. For B5, the “CAT EC50” value was 147 nM. B6 was tested, and the “CAT EC50” value was 117 nM. For B7, the “CAT EC50” value was 281 nM. B8 was tested, and the “CAT EC50” value was 146 nM. B9 was tested, and the “CAT EC50” value was 155 nM. With B10 the “CAT EC50” value was 176 nM. In the case of B11, the “CAT EC50” value is reported as 129 nM. For B12, the “CAT EC50” value was 127 nM. B13 was tested, and the “CAT EC50” value was 116 nM.

The binders below were run against T1, human Protein S (assay: competition ELISA; Protein S coated; competitor biotinylated tracer JBS0684).
Method: The competition (IC50) ELISA was performed using biotinylated tracer peptide JBS0684 to compete for Protein S-binding with candidate peptides. Peptides that compete with the tracer bind the same region of Protein S as the tracer (and each other). Ninety-six well PolySorp plates (Nunc) were coated with 3 μg/mL Protein S in coating buffer (15 mM Na₂CO₃, 35 mM NaHCO₃, pH 9.6) over night. […] Plates were then washed three times with HNaT. JBS0684 was applied at a concentration corresponding to the EC90 value determined in the binding ELISA. A competitor stock solution of peptide (10 mM) was diluted 1/33.3 in HNaT without HSA, and a serial 1/3 dilution was prepared with HNaT with 3% DMSO. The dilution was further diluted with the biotinylated tracer peptide in a ratio of 1:6 (20 μl competitor dilution and 100 μl tracer peptide). The mixture of competitor and tracer peptide was applied to the Protein S-coated microtiter plate and incubated for 1.5 hours. The plates were washed three times with HNaT. Peptide-Protein S binding was detected by applying HRP-conjugated streptavidin to the microtiter plate, incubating the mixture for one hour, washing the plate three times with HNaT, applying TMB (3,3′5,5′-Tetramethylbenzidin), and detecting the subsequent chromogenic conversion of TMB by HRP. IC50 measurements of peptides are provided herein (see, e.g., Table 3).
B14 was tested, and the IC50 was 2.8 nM. In the case of B15, the IC50 is reported as 3.3 nM. Binder B16 has an IC50 of 1.6 nM. For B17, the IC50 was 2.6 nM. In the case of B18, the IC50 is reported as 3.4 nM. Work on B19 yielded an IC50 of 5.6 nM. For B20, the IC50 was 3.9 nM. In the case of B21, the IC50 is reported as 3.6 nM. Work on B29 yielded an IC50 of 4.2 nM. B22 showed an IC50 of 3.1 nM. With B23 the IC50 was 4.1 nM. Work on B24 yielded an IC50 of 2.7 nM. B25 was tested, and the IC50 was 6.8 nM. Work on B26 yielded an IC50 of 5.5 nM. B27 showed an IC50 of 5.2 nM. Work on B28 yielded an IC50 of 2.3 nM.

Target: T2, human Protein S
Assay: LANCE competition
Remark: another data set of the same source
Outline: as §1
B14 was tested, and the IC50 was 7.8 nM. B15 showed an IC50 of 9.9 nM. In the case of B16, the IC50 is reported as 6.6 nM. For B17, the IC50 was 11 nM. With B18 the IC50 was 10.9 nM. Work on B19 yielded an IC50 of 20 nM. B20 gave an IC50 of 21.5 nM. B25 gave an IC50 of 31 nM. Binder B26 has an IC50 of 16.6 nM. For B27, the IC50 was 18.8 nM. Binder B28 has an IC50 of 7.4 nM.
